{
  "source": "patent US20180311291A1",
  "about": "(PSIOXUS THERAPEUTICS, published 2018)",
  "binders": {"B1": {"name": "anti-VEGF full length IgG1 antibody secreted from NG-165 infected cells (antibody, V domains shown)", "VH": "EVQLVESGGGLVQPGGSLRLSCAASGYTFTNYGMNWVRQAPGKGLEWVGWINTYTGEPTYAADFKRRFTFSLDTSKSTAYLQMNSLRAEDTAVYYCAKYPHYYGSSHWYFDVWGQGTLVTVSS", "VL": "DIQMTQSPSSLSASVGDRVTITCSASQDISNYLNWYQQKPGKAPKVLIYFTSSLHSGVPSRFSGSGSGTDFTLTISSLQPEDFATYYCQQYSTVPWTFGQGTKVEIKR"}, "B2": {"name": "anti-VEGF full length antibody (human IgG1) secreted from NG-135 infected cells (antibody, V domains shown)", "VH": "B1 VH", "VL": "B1 VL", "notes": "also called SSA-Bev-PA"}, "B3": {"name": "anti-VEGF ScFv with C-terminal His6 tag expressed from NG-78 infected cells (scFv)", "scFv": "EVQLVESGGGLVQPGGSLRLSCAASGYTFTNYGMNWVRQAPGKGLEWVGWINTYTGEPTYAADFKRRFTFSLDTSKSTAYLQMNSLRAEDTAVYYCAKYPHYYGSSHWYFDVWGQGTLVTVSSGGGGSGGGGSGGGGSDIQMTQSPSSLSASVGDRVTITCSASQDISNYLNWYQQKPGKAPKVLIYFTSSLHSGVPSRFSGSGSGTDFTLTISSLQPEDFATYYCQQYSTVPWTFGQGTKVEIKRHHHHHH", "notes": "also called NG-78 anti-VEGF ScFv"}, "B4": {"name": "anti-VEGF ScFv with C-terminal His6 tag expressed from NG-76 infected cells (scFv)", "scFv": "B3 scFv", "notes": "also called NG-76 anti-VEGF ScFv"}},
  "key": {"recombinant CTLA4-Fc": {"biological_target": "T1, recombinant CTLA4-Fc (UniProt P16410 37-162)", "T1 construct": "also called CTLA4-Fc (R&D Systems, 325-CT-200); not shown: Fc part of the bought fusion protein", "T1 sequence (P16410 37-162 limits assumed)": "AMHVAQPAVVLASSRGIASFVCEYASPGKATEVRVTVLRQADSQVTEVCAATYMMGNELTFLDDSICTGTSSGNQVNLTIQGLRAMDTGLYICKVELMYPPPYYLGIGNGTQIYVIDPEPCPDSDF", "test": "direct CTLA-4 binding ELISA on CTLA4-Fc coated plates; supernatant diluted 1 in 2 to 1 in 2048"}, "recombinant PDL1-Fc": {"biological_target": "T2, recombinant PDL1-Fc (UniProt Q9NZQ7 19-239)", "T2 construct": "also called PDL1-Fc (R&D Systems, 156-B7-100); not shown: Fc part of the bought fusion protein", "T2 sequence (Q9NZQ7 19-239 limits assumed)": "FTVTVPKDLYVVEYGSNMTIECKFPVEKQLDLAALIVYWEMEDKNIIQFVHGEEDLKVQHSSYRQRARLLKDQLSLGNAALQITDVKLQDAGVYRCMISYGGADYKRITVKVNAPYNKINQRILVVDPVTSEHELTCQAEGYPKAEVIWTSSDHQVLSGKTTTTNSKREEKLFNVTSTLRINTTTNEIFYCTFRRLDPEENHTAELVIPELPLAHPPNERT", "test": "direct PD-L1 binding ELISA on PDL1-Fc coated plates; 10-fold concentrated supernatant diluted 1 in 2 to 1 in 2048; anti-kappa light chain detection"}, "[1]": {"biological_target": "T3, non-recombinant PD-L1 ligand expressed in a membrane environment on the surface of lung carcinoma cells (A549) (human, UniProt Q9NZQ7 19-290)", "T3 construct": "whole, on cells; also called cellular PD-L1; PD-L1 on IFNg stimulated A549 cells", "T3 sequence (Q9NZQ7 19-290)": "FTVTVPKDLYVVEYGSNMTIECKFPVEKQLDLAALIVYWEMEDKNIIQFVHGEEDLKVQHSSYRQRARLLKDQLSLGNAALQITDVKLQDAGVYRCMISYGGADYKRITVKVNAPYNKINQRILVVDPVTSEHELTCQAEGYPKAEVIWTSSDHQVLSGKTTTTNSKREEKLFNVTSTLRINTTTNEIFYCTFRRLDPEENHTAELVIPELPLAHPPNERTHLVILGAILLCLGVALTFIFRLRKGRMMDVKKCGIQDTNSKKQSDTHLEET", "test": "flow cytometry on A549 cells with or without IFNgamma stimulation; 50 ul concentrated supernatant; Alexa-fluor 488 anti-human IgG detection", "description": "A549 cells were either stimulated with 50 ng/ml human IFNγ to promote upregulation of PD-L1 expression on the cell surface or left unstimulated. […] The cells were washed again, resuspended in PBS/1% BSA and analysed with an Attune acoustic focusing cytometer (Life Technologies)."}, "human VEGF-165 [2]": {"biological_target": "T4, human VEGF-165 (human, UniProt P15692-4 27-191)", "T4 sequence (P15692 other isoform, or with tags, fused parts or gaps limits assumed)": "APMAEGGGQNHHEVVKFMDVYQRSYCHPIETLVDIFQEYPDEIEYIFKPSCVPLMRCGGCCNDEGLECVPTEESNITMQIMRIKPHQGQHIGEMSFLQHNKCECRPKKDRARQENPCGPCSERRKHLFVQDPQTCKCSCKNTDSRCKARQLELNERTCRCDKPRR", "test": "direct VEGF binding ELISA and competition ELISA with bevacizumab, HRP anti-His detection; 293F supernatant and lysate", "description": "The cells and media were harvested from the flask and the supernatant and cells were separated by centrifuging for 10 mins, 1000 rpm. The supernatant was collected and the remaining cell pellet resuspended in 1 ml of cell media before carrying out 3 freeze-thaw cycles to lyse the cells. Post-lysis the cell debris and media was separated by a second centrifugation step and the supernatant from the lysate was collected. The supernatants or lysates were diluted 1 in 2 in 3% BSA/PBS 0.05% tween. […] Samples were added to the plates at 100 μl/well and incubated for 1 hr VEGF bound ScFv was detected using HRP-conjugated polyclonal anti-His (Abcam ab1187) followed by TMB detection."}, "human VEGF-165 [3]": {"biological_target": "T4, human VEGF-165", "test": "VEGF binding ELISA, HRP anti-His detection", "description": "Plates were washed between all subsequent binding steps with PBS 0.05% Tween 20. The plates were blocked for 1 hour at room temperature with 3% BSA in PBS 0.05% Tween 20.\nAD293 cells were seeded in 6 well culture plates at a density of 5e5 cells per well. […] Cells were cultured for 72 hrs before the supernatants were collected from the wells and centrifuged for 5 mins, 1200 rpm to remove cell debris. The clarified supernatants were then used for either VEGF binding ELISA or Western blot analysis. […] Samples were added to the plates at 100 μl/well and assay. The detection antibody, HRP conjugated polyclonal anti-His (Abcam ab1187) was then applied for 1 hr at room temperature before HRP detection was performed with HRP substrate solution 3.3.5.5′-teramethylethylenediamine (TMB, Thermo-Fisher). 1M HCl was used for stopping the reaction and the developed colour was measured at 450 nm on a plate reader."}},
  "data": [
    {"binder": "B1", "values": [
      {"measurement": "binding result", "setting": "recombinant CTLA4-Fc", "value": "no binding"},
      {"measurement": "binding result", "setting": "recombinant PDL1-Fc", "value": "no binding"}
    ]},
    {"binder": "B2", "values": [
      {"measurement": "binding result", "setting": "[1]", "value": "no binding"}
    ]},
    {"binder": "B3", "values": [
      {"measurement": "binding result", "setting": "human VEGF-165 [2]", "value": "binds"}
    ]},
    {"binder": "B4", "values": [
      {"measurement": "binding result", "setting": "human VEGF-165 [3]", "value": "binds"}
    ]}
  ]
}
